Biological target: Vps26A (UniProt O75436)
Assay: BRET titration curves in live cells
Details: sites S72

Rab7A (from UniProt P51149) NEK7KO HEK293 cells
other: BRET50 (reference: wild-type HEK293 cells): weaker; reference 0.0022±0.0009

Rab7A (from UniProt P51149) NEK7KO HEK293 cells expressing HA–NEK7
other: BRET50 (reference: NEK7KO HEK293 cells): stronger; reference 0.0096±0.0039

Rab7A (from UniProt P51149) S72A
other: BRET50 (reference: wild type RlucII–Rab7A): weaker; reference 0.0026±0.000512
